# Key:
# [1] = molecular target: human MET on EBC-1, NCI-H441 and NCI-H358 cells (human) (UniProt P08581); assay: cell binding assay on EBC-1 cells, n=1, gamma counting
# hMET.mmh (human) = hMET.mmh (human) (UniProt P08581); assay: SPR Biacore T-200, antibody captured by anti-human Fc, 90 nM hMET.mmh, 25 C (second run)
substance,measurement,setting,value
non-specific DFO-Ab radioimmunoconjugate (antibody),"IR (%) (immunoreactivity, percent of activity bound to cells)",[1],2.8%
Non-binding isotype Control (antibody),Antigen Bound,hMET.mmh (human),-1.46 RU/nm
